Assay results as given in patent US20050202010A1, “Method of treatment and bioassay involving macrophage migration inhibitory factor (MIF) as cardiac-derived myocardial depressant factor” (priority 2003, published 2005).
“And” between values parts separate entries of the source, which are not always exact repeats. Equal values may be shown once.

Test system: CD74 KO mouse hearts
Experiment: Langendorff, rhMIF added to perfusate, CD74 KO mouse hearts
Set-up: LVP / +dP/dt / −dP/dt / TPP / CVR: unit not given beside the values
[1] = CD74 K/O + rhMIF, single hearts by date and mean (x), n 3
[2] = CD74 K/O + rhMIF, single hearts by date and mean (x), n 3, mean
[3] = CD74 KO + rhMIF in perfusate, n = 3

B1: rMIF: recombinant human macrophage migration inhibitory factor added to the heart perfusate at 20 ng/ml (protein, UniProt P14174 2-115, looked up)
Macrophage migration …: PMFIVNTNVPRASVPDGFLSELTQQLAQATGKPPQYIAVHVVPDQLMAFGGSSEPCALCSLHSIGKIGGAQNRSYSKLLCGLLAERLRISPDRVYINYYDMNAANVGWNNSTFA
With B1 the “+dP/dt” value [1] was 1800 and 1600 and 2200, the CVR [1] was 45 and 53 and 71 and the DR [1] was 1.286 and 1.455 and 1.222. For the same molecule, the HR [1] was 320 and 325, the LVP [1] was 64 and 50 and 88 and the “Max + d” value [1] was 45 and 50 and 40. The “Max − d” value [1] was 53 and 52, the RT90 [1] was 80 and 72 and the TPP [1] was 70 and 75 and 63. For the same molecule, the dP40 [1] was 1900, the “−dP/dt” value [1] was 1400 and 1100 and 1800 and the “+dP/dt” value [2] was 1866.667. For the same molecule, the CVR [2] was 56.33, the DR [2] was 1.321 and the HR [2] was 321.6667. For the same molecule, the LVP [2] was 67.33, the “Max − d” value [2] was 52.67 and the RT90 [2] was 77.33. The TPP [2] was 69.33, the dP40 [2] was 1666.667 and the “−dP/dt” value [2] was 1433.333. For the same molecule, the “+dP/dt max” value [3] was 1867 ± 176 mmHg/sec, the “Coronay Perfusion Pressue” value [3] was 86.0 ± 23.6 mmHg and the “Coronay Vascular Resistance” value [3] was 56.3 ± 7.7 mmHg. For the same molecule, the “Heart Rate” value [3] was 322 ± 2 bpm, the “Left Ventricular Pressure” value [3] was 67.3 ± 14.4 mmHg and the “Time to 90% Relaxation” value [3] was 77.3 ± 2.7 ms. For the same molecule, the “Time to Max +dP/dt” value [3] was 45.0 ± 2.9 ms, the “Time to Max −dP/dt” value [3] was 52.7 ± 0.3 ms and the “Time to Peak Pressue” value [3] was 69.3 ± 3.5 ms. For the same molecule, the dP40 [3] was 1662 ± 120 mmHg/sec and the “−dP/dt max” value [3] was 1433 ± 202 mmHg/sec.
